Test results as given in paper PMC8368100, “Structural basis for ALK2/BMPR2 receptor complex signaling through kinase domain oligomerization” (Nature Communications, 2021).

T1: BMPR2 kinase domain (BMPR2^KD, residues 189-529) (human, UniProt Q13873 189-529)
T1 construct: BMPR2, type II BMP receptor, kinase domain, residues 189-529; TEV site between His tag and kinase domain; also called BMP receptor type II; source: BL21 E. coli, purified (Ni-NTA, TEV cleavage, SEC, Mono-Q); not shown: His tag, N-terminal, cleaved
T1 sequence (looked up): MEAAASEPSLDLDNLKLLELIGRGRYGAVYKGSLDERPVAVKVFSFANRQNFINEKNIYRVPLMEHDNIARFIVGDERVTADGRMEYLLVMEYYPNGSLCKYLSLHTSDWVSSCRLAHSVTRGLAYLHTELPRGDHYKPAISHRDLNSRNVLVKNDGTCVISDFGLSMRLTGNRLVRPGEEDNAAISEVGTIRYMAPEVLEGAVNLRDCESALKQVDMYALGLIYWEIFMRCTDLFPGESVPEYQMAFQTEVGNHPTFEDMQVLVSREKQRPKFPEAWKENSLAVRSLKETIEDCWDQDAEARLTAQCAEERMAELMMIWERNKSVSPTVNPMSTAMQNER


Target: T1, BMPR2 kinase domain (BMPR2^KD, residues …)
Experiment: SEC; Superdex 200 Increase 10/300 GL; kinase domains alone or as a stoichiometric mixture; also run in buffers with increasing NaCl
Settings: both partners purified

| Binder | binding result |
| --- | --- |
| ALK2 kinase domain (ALK2^KD, residues 201-499) (domain or fragment, human, UniProt Q04771 201-499, looked up, ALK2 (ACVR1), type I BMP receptor, kinase domain without the GS domain, residues 201-499; TEV site between His tag and kinase domain; also called ACVR1; ActRIA; source: SF9 insect cells, purified (Ni-NTA, TEV cleavage, SEC); not shown: His tag, N-terminal, cleaved) QRTVARQITLLECVGKGRYGEVWRGSWQGENVAVKIFSSRDEKSWFRETELYNTVMLRHENILGFIASDMTSRHSSTQLWLITHYHEMGSLYDYLQLTTLDTVSCLRIVLSIASGLAHLHIEIFGTQGKPAIAHRDLKSKNILVKKNGQCCIADLGLAVMHSQSTNQLDVGNNPRVGTKRYMAPEVLDETIQVDCFDSYKRVDIWAFGLVLWEVARRMVSNGIVEDYKPPFYDVVPNDPSFEDMRKVVCVDQQRPNIPNRWFSDPTLTSLAKLMKECWYQNPSARLTALRIKKTLTKID | binds |
| ALK2^KD-K492A (ALK2 kinase domain K492A) (domain or fragment, human, UniProt Q04771 201-499, looked up, ALK2 (ACVR1) kinase domain, residues 201-499, K492A; source: SF9 insect cells, purified (Ni-NTA, TEV cleavage, SEC); not shown: His tag, N-terminal, cleaved) QRTVARQITLLECVGKGRYGEVWRGSWQGENVAVKIFSSRDEKSWFRETELYNTVMLRHENILGFIASDMTSRHSSTQLWLITHYHEMGSLYDYLQLTTLDTVSCLRIVLSIASGLAHLHIEIFGTQGKPAIAHRDLKSKNILVKKNGQCCIADLGLAVMHSQSTNQLDVGNNPRVGTKRYMAPEVLDETIQVDCFDSYKRVDIWAFGLVLWEVARRMVSNGIVEDYKPPFYDVVPNDPSFEDMRKVVCVDQQRPNIPNRWFSDPTLTSLAKLMKECWYQNPSARLTALRIAKTLTKID | binds |
